Source: PMC2706832

Target: wild-type CCR1 expressed on HEK293 cells (human) (UniProt P32246)
Sequence (P32246 whole entry): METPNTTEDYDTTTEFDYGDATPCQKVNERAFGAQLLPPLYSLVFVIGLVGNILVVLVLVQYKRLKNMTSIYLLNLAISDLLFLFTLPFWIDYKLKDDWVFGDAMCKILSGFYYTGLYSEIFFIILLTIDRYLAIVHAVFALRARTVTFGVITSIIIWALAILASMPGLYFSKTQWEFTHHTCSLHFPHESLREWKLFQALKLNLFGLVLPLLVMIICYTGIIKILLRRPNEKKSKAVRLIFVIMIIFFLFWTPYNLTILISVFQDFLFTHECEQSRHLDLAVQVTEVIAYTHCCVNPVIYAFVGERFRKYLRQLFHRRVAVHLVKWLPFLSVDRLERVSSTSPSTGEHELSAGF

B1: CCL14 full length (1-74) (ligand)
chain: TKTESSSRGPYHPSECCFTYTTYKIPRQRIMDYYETNSQCSKPGIVFITKRGHSVCTNPSDKWVQDYIKDMKEN
B1 gave an EC50 for calcium flux in CCR1-transfected HEK293 cells of over 1000 nM.
